{"source": "patent US20220332839A1", "about": "“USE OF PRG4 TO TREAT CANCER” (Lubris LLC, priority 2019, published 2022)", "key": {"CD44-IgG1Fc": {"target": "T1, CD44-IgG1Fc (Homo sapiens, UniProt P16070)", "T1 construct": "purchased R & D systems", "experiment": "Direct ELISA: binding of coated macromolecules to CD44-IgG1Fc", "experimental": "High-binding microtiter plates (Corning, Sigma Aldrich, USA) were coated with rhPRG4 (Mr≅240 KDa), high molecular weight HA (HMW HA; Mr≅1,500 KDa) (R & D System, USA), medium molecular weight HA (MMW HA; Mr≅′300KDa) (R & D System) and vitronectin KDa) (Sigma Aldrich) at 400 μg/mL in PBS buffer (100 μL per well) overnight at 4° C. rhPRG4 is a full-length product produced by CHO-M cells (Lubris, Framingham, Mass., USA). Following washing with PBS+0.1% Tween 20, wells were blocked with 2% bovine serum albumin (BSA; 300 μL per well) for at least 2 hours at room temperature. CD44-IgG1Fc (R & D systems) or IgG1Fc (R & D systems), each at 1 μg/mL (100 μl per well), were added to the plate and incubated for 60 min at room temperature. Following washing with PBS+0.1% tween 20, anti-IgG1Fc-HRP (Sigma Aldrich) was added at 1:10,000 dilution (100 μL per well) and incubated for 60 min at room temp. Following washing with PBS+0.1% tween 20, the assay was developed using 1-step Turbo TMB ELISA reagent (ThermoScientific, USA) and absorbance was measured at 450 nm. The data represents an average of 4 independent assays, each with triplicate wells per group.\nThe concentration-dependent binding of rhPRG4, HMW HA and MMW HA to CD44 was performed by coating microtiter plates with 400, 200, 100, 20, 4, 2 and 0.1 μg/mL of the macromolecules. The assay was performed as described above. The absorbance values in the IgG1Fc wells were subtracted from the absorbance values in the CD44 IgG1Fc wells and the corrected CD44 IgG1Fc absorbance values were normalized to those of the 400 μg/mL rhPRG4 group and data was expressed as percentage binding to CD44. The concentration-dependent binding of rhPRG4, HMW HA and MMW HA to recombinant CD44 is depicted in FIG. 1B. […] The data represents an average of 4 independent assays, each with triplicate wells per group.\nrhPRG4 was digested using sialidase A (Prozyme, USA), O-glycosidase (New England Biolabs, USA) or a combination of sialidase A and O-glycosidase for 16 hours at 37° C. In the sialidase A digestion, 12 μL of the enzyme (1U/200 μL) was added to rhPRG4 in a total reaction volume of 180 μL and a rhPRG4 final concentration of 300 μg/mL. In the O-glycosidase digestion, 4.8 μL of the enzyme (40million units/mL) was added to rhPRG4 in a total reaction volume of 180 μL and a rhPRG4 final concentration of 300 μg/mL under non-denaturing conditions. In the sialidase-A and O-glycosidase digestion, the enzymes were used in volumes identical to the ones stated above and incubated with rhPRG4 in a total reaction volume and final rhPRG4 concentration as stated above. The effect of sialidase-A and O-glycosidase digestions on rhPRG4 apparent molecular weight was determined by SDS-PAGE using 4-12% Bis-Tris gel (NuPage, life technologies, USA). A total of 20 μL of rhPRG4 or enzyme-digested rhPRG4 was run under reducing conditions ([…] for 60 min) followed by staining using Gelcode Blue Stain (Thermo Scientific, USA). Binding of enzymatically digested rhPRG4 to CD44 was compared to undigested rhPRG4 using the direct ELISA approach described above and using an rhPRG4 coating concentration of 30 μg/mL. Data represents the average of 4 independent experiments, each with triplicate wells per group."}, "immobilized CD44-IgG1Fc": {"target": "T2, immobilized CD44-IgG1Fc (Homo sapiens, UniProt P16070)", "T2 construct": "purchased R & D systems", "experiment": "Surface plasmon resonance binding of rhPRG4 to CD44 and competition with HMW HA", "experimental": "Binding of rhPRG4 to CD44-IgG1Fc was investigated using surface plasmon resonance (Biacore T100, GE Healthcare Lifesciences, NJ, USA). Series S chips were functionalized using the human antibody capture kit (GE Life Sciences) and either CD44-IgG1Fc or IgG1FC was allowed to bind to the surface of the functionalized chips in flow cell 1 (Fc1) and flow cell 2 (Fc2), respectively. rhPRG4 was injected at 30 μL/min for 8 min at concentrations of 300, 250, 200, 150, 100 and 50 μg/mL followed by a 10 min dissociation using 0.1M HEPES, 1.5M NaCl, 30 mM EDTA, and 0.5% P20 (GE Life Sciences). The surface of the chip was regenerated at the end of each cycle with 1 min pulse of 3M MgCl2. Each analyte concentration was injected in duplicate. The resulting curves were double referenced (i.e. Fc2-Fc1, followed by subtraction of the 0 μg/mL curve). The binding kinetics and binding affinity were determined by BiaEvaluation software, using 1:1 binding/conformational change model or by steady-state equilibrium, respectively. To study the competition between rhPRG4 and HMW HA in binding to CD44, rhPRG4 was injected at concentrations ranging between 0 and 300 μg/mL as described above. Following the end of dissociation phase, HMW HA was injected at 50 μg/mL (30 μL per min) for 1 min. […]"}}}
{"substance": "rhPRG4: full-length recombinant human PRG4 (lubricin) glycoprotein produced by CHO-M cells; residues 25-1404 of SEQ ID NO:1", "values": [{"measurement": "concentration-dependent binding to CD44, affinity", "setting": "CD44-IgG1Fc", "result": "comparable affinity to HMW HA"}, {"measurement": "percentage CD44 binding between rhPRG4, HMW HA and MMW HA-coated wells", "setting": "CD44-IgG1Fc; 0.1 μg/mL coating", "result": "no significant differences"}, {"measurement": "percentage recombinant CD44 binding compared to MMW HA coated wells", "setting": "CD44-IgG1Fc; 200 μg/mL coating, p<0.001", "result": "significantly higher"}, {"measurement": "percentage recombinant CD44 binding compared to HMW HA or MMW HA-coated wells", "setting": "CD44-IgG1Fc; 400, 100, 20, 4 and 2 μg/mL coating, p<0.001", "result": "significantly higher"}, {"measurement": "450 nm absorbance in the CD44-IgG1Fc group vs the IgG1Fc group", "setting": "CD44-IgG1Fc; wells coated at 400 μg/mL, CD44-IgG1Fc or IgG1Fc at 1 μg/mL", "result": "significantly higher"}, {"measurement": "Kd", "setting": "immobilized CD44-IgG1Fc; based on a rhPRG4 molecular weight of 240 KDa, read-out: apparent Kd", "result": "~38", "unit": "nM"}, {"measurement": "effect on binding of HMW HA to recombinant CD44", "setting": "immobilized CD44-IgG1Fc; rhPRG4 0-300 μg/mL, then HMW HA 50 μg/mL", "result": "interfered with binding of HMW HA"}]}
